Laboratory results reported in patent publication US20110263454A1, “Methods of Identifying Functional Characteristics of Promoters, Transcription Modifying Proteins and Transcription Modulating Agents” (Salk Institute for Biological Studies, priority 2008, published 2011).

B1: TR4: Testicular Orphan Nuclear Receptor 4 (NR2C2), cDNA driver (protein, UniProt P49116 1-596, looked up)
Nuclear receptor subfamily 2 …: MTSPSPRIQIISTDSAVASPQRIQIVTDQQTGQKIQIVTAVDASGSPKQQFILTSPDGAGTGKVILASPETSSAKQLIFTTSDNLVPGRIQIVTDSASVERLLGKTDVQRPQVVEYCVVCGDKASGRHYGAVSCEGCKGFFKRSVRKNLTYSCRSNQDCIINKHHRNRCQFCRLKKCLEMGMKMESVQSERKPFDVQREKPSNCAASTEKIYIRKDLRSPLIATPTFVADKDGARQTGLLDPGMLVNIQQPLIREDGTVLLATDSKAETSQGALGTLANVVTSLANLSESLNNGDTSEIQPEDQSASEITRAFDTLAKALNTTDSSSSPSLADGIDTSGGGSIHVISRDQSTPIIEVEGPLLSDTHVTFKLTMPSPMPEYLNVHYICESASRLLFLSMHWARSIPAFQALGQDCNTSLVRACWNELFTLGLAQCAQVMSLSTILAAIVNHLQNSIQEDKLSGDRIKQVMEHIWKLQEFCNSMAKLDIDGYEYAYLKAIVLFSPDHPGLTSTSQIEKFQEKAQMELQDYVQKTYSEDTYRLARILVRLPALRLMSSNITEELFFTGLIGNVSIDSIIPYILKMETAEYNGQITGASL
B2: TR2: Testicular Orphan Nuclear Receptor 2 (NR2C1), cDNA driver (protein, UniProt P13056 1-603, looked up)
Nuclear receptor subfamily 2 …: MATIEEIAHQIIEQQMGEIVTEQQTGQKIQIVTALDHNTQGKQFILTNHDGSTPSKVILARQDSTPGKVFLTTPDAAGVNQLFFTTPDLSAQHLQLLTDNSPDQGPNKVFDLCVVCGDKASGRHYGAVTCEGCKGFFKRSIRKNLVYSCRGSKDCIINKHHRNRCQYCRLQRCIAFGMKQDSVQCERKPIEVSREKSSNCAASTEKIYIRKDLRSPLTATPTFVTDSESTRSTGLLDSGMFMNIHPSGVKTESAVLMTSDKAESCQGDLSTLANVVTSLANLGKTKDLSQNSNEMSMIESLSNDDTSLCEFQEMQTNGDVSRAFDTLAKALNPGESTACQSSVAGMEGSVHLITGDSSINYTEKEGPLLSDSHVAFRLTMPSPMPEYLNVHYIGESASRLLFLSMHWALSIPSFQALGQENSISLVKAYWNELFTLGLAQCWQVMNVATILATFVNCLHNSLQQDKMSTERRKLLMEHIFKLQEFCNSMVKLCIDGYEYAYLKAIVLFSPDHPSLENMEQIEKFQEKAYVEFQDYITKTYPDDTYRLSRLLLRLPALRLMNATITEELFFKGLIGNIRIDSVIPHILKMEPADYNSQIIGHSI
B3: RORb: RAR-related Orphan Receptor β (NR1F2), cDNA driver (protein, UniProt Q92753 1-470, looked up)
Nuclear receptor ROR-beta: MCENQLKTKADATAQIEVIPCKICGDKSSGIHYGVITCEGCKGFFRRSQQNNASYSCPRQRNCLIDRTNRNRCQHCRLQKCLALGMSRDAVKFGRMSKKQRDSLYAEVQKHQQRLQEQRQQQSGEAEALARVYSSSISNGLSNLNNETSGTYANGHVIDLPKSEGYYNVDSGQPSPDQSGLDMTGIKQIKQEPIYDLTSVPNLFTYSSFNNGQLAPGITMTEIDRIAQNIIKSHLETCQYTMEELHQLAWQTHTYEEIKAYQSKSREALWQQCAIQITHAIQYVVEFAKRITGFMELCQNDQILLLKSGCLEVVLVRMCRAFNPLNNTVLFEGKYGGMQMFKALGSDDLVNEAFDFAKNLCSLQLTEEEIALFSSAVLISPDRAWLIEPRKVQKLQEKIYFALQHVIQKNHLDDETLAKLIAKIPTITAVCNLHGEKLQVFKQSHPEIVNTLFPPLYKELFNPDCATGCK
B4: HNF4g: Hepatocyte Nuclear Factor γ (NR2A2), cDNA driver (protein, UniProt Q14541 1-408, looked up)
Hepatocyte nuclear factor …: MNTTDNGVNCLCAICGDRATGKHYGASSCDGCKGFFRRSIRKSHVYSCRFSRQCVVDKDKRNQCRYCRLRKCFRAGMKKEAVQNERDRISTRRSTFDGSNIPSINTLAQAEVRSRQISVSSPGSSTDINVKKIASIGDVCESMKQQLLVLVEWAKYIPAFCELPLDDQVALLRAHAGEHLLLGATKRSMMYKDILLLGNNYVIHRNSCEVEISRVANRVLDELVRPFQEIQIDDNEYACLKAIVFFDPDAKGLSDPVKIKNMRFQVQIGLEDYINDRQYDSRGRFGELLLLLPTLQSITWQMIEQIQFVKLFGMVKIDNLLQEMLLGGASNDGSHLHHPMHPHLSQDPLTGQTILLGPMSTLVHADQISTPETPLPSPPQGSGQEQYKIAANQASVISHQHLSKQKQL

Experiments:
mUCP1 promoter = assay: NHR-promoter luciferase screen, mUCP1 promoter; format: cell-based, mouse; conditions: for Luc. act., normalized to lacZ / Normalized Luc. act., normalized to control: mUCP1 promoter reporter, co-transfected HR, with or without its ligand; for Normalized Luc. act., normalized to control: relative to control; for luciferase activity normalized to lacZ activity and to a control, mUCP!: mUCP! promoter-luciferase, CV-1 cells, NHR +/- ligand, control = 1.00
In short: (§1)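 CV-1 cells were co-transfected with 50 ng NHR (homodimer or NHR/RXR heterodimer), 100 ng promoter-luciferase construct and 50 ng LacZ. Luciferase was normalized to LacZ and to a no-NHR/no-ligand control.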

mPer1 promoter = assay: NHR-promoter luciferase screen, mPer1 promoter; format: cell-based, mouse; conditions: for Luc. act., normalized to lacZ / Normalized Luc. act., normalized to control: Per1 promoter reporter, co-transfected HR, with or without its ligand; for Normalized Luc. act., normalized to control: relative to control; for luciferase activity normalized to lacZ activity and to a control, mPer1: mPer1 promoter-luciferase, CV-1 cells, NHR +/- ligand, control = 1.00
In short: as §1

mUCP3 promoter = assay: NHR-promoter luciferase screen, mUCP3 promoter; format: cell-based, mouse; conditions: for Normalized Luc. act., normalized to control / Luc. act., normalized to lacZ: mUCP3 promoter reporter; for Normalized Luc. act., normalized to control: HR without or with its ligand, relative to control; for Luc. act., normalized to lacZ: hormone receptor (HR) without or with its ligand; for mUCP3 promoter reporter activity: transcription factor +/- ligand, control = 1.00
In short: as §1

mLeptin promoter = assay: NHR-promoter luciferase screen, mLeptin promoter; format: cell-based, mouse; conditions: for Luc. act., normalized to lacZ / Normalized Luc. act., normalized to control: Table 7, mLeptin; for Results of assays of transcription factor (+/- ligand) with mLeptin: Table 6d, luciferase activity relative to control (control = 1.00)
In short: as §1

hTNFa promoter = assay: NHR-promoter luciferase screen, hTNFa promoter; format: cell-based, human; conditions: for Luc. act., normalized to lacZ / Normalized Luc. act., normalized to control: TNFa promoter, HR component without or with ligand; for hTNFa promoter reporter activity: transcription factor +/- ligand, control = 1.00
In short: as §1

hMDR1 promoter = assay: NHR-promoter luciferase screen, hMDR1 promoter; format: cell-based, human; conditions: for Luc. act., normalized to lacZ / Normalized Luc. act., normalized to control: MDR1 promoter, HR/ligand component; for hMDR1 promoter reporter activity: transcription factor +/- ligand, control = 1.00
In short: as §1

| Molecule | Luc. act., normalized to lacZ (mUCP1 promoter) | Normalized Luc. act., normalized to control (mUCP1 promoter) | luciferase activity normalized to lacZ activity and to a control, mUCP! (mUCP1 promoter) | Luc. act., normalized to lacZ (mPer1 promoter) | Normalized Luc. act., normalized to control (mPer1 promoter) | luciferase activity normalized to lacZ activity and to a control, mPer1 (mPer1 promoter) | Normalized Luc. act., normalized to control (mUCP3 promoter) | Luc. act., normalized to lacZ (mUCP3 promoter) | mUCP3 promoter reporter activity (mUCP3 promoter) | Luc. act., normalized to lacZ (mLeptin promoter) | Normalized Luc. act., normalized to control (mLeptin promoter) | Results of assays of transcription factor (+/- ligand) with mLeptin (mLeptin promoter) | luciferase/LacZ, mLeptin (selected results) (mLeptin promoter; mLeptin promoter-luciferase, NHR +/- ligand, control = 1.0) | Luc. act., normalized to lacZ (hTNFa promoter) | Normalized Luc. act., normalized to control (hTNFa promoter) | hTNFa promoter reporter activity (hTNFa promoter) | Luc. act., normalized to lacZ (hMDR1 promoter) | Normalized Luc. act., normalized to control (hMDR1 promoter) | hMDR1 promoter reporter activity (hMDR1 promoter) |
| --- | --- | --- | --- | --- | --- | --- | --- | --- | --- | --- | --- | --- | --- | --- | --- | --- | --- | --- | --- |
| B1 | 26.4 | 5.9 | 5.94 | 225.6 | 1.6 | 1.57 | 3.2 | 2.2 | 3.19 | 7.5 | 2.6 | 2.56 | 2.6 | 1189.6 | 1.2 | 1.21 | 0.5 | 1.6 | 1.57 |
| B2 | 8.1 | 1.8 | 1.82 | 103.1 | 0.7 | 0.72 | 2.0 | 1.4 | 2.01 | 3.4 | 1.1 | 1.15 | – | 1038.2 | 1.1 | 1.06 | 0.3 | 1.0 | 1.01 |
| B3 | 3.8 | 0.9 | 0.86 | 112.0 | 0.8 | 0.78 | 1.3 | 0.9 | 1.33 | 3.3 | 1.1 | 1.12 | – | 1029.5 | 1.0 | 1.05 | 0.2 | 0.6 | 0.58 |
| B4 | 3.5 | 0.8 | 0.79 | 116.1 | 0.8 | 0.81 | 0.8 | 0.6 | 0.84 | 2.4 | 0.8 | 0.82 | – | 859.3 | 0.9 | 0.87 | 0.2 | 0.8 | 0.75 |
